The record followed here is US20230038883A1, “SPECIFIC HOST FACTOR OF HEPATITIS B VIRUS INFECTION, AND USE THEREOF” (priority 2020, published 2023).

Test [1] addresses polypeptide containing amino acids 69-108 of preS1 (peptide^69-108) (hepatitis B virus). The test can be described thus: ForteBio Octet; sensorgrams at 200, 100, 50 and 25 µg/mL. For orientation: BLI is a label-free optical method that tracks binding on a fibre tip over time.
For test [2] the target is unchanged. Put plainly: ForteBio Octet (BLI), biotin-labeled peptide.
The target in the next test is T1, SCARF2 EGF4-6 proteins (Homo sapiens, UniProt Q96GP6).
T1 construct: Precision (protease site) tag (internal); human Fc tag (IgG1) (C); made in house; host or cells: 293F cells (pCAGGs vector), purified with Protein A beads
T1 sequence (Q96GP6 183-270): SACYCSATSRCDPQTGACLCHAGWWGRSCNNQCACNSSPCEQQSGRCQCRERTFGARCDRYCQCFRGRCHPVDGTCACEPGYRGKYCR
Put plainly: immunoprecipitation of biotin labeled preS1 polypeptides with SCARF2 EGF4-6. Format: binding. From the text:
Compared with SVPs, the virus particles were rich in L protein, and the main functional segment of L protein was the preS1 segment; it was therefore speculated that the SCARF2 EGF4-6 proteins interact with the preS1 segment of the L protein of the virus. […] The C-terminus of each of the synthesized peptides was biotin labeled.

The test system of another test is NTCP mRNA. The test can be described thus: NTCP mRNA level under CREBH overexpression. The class given is cell-based. As to conditions: overexpression in HepG2-NTCP. From the text: NTCP is a key receptor in HBV infection and can directly bind to the PreS1 region on the virus. Many factors capable of affecting HBV infection may indirectly affect HBV infection by affecting the expression level or cellular localization of NTCP. In order to detect whether CREBH enhances HBV infection by affecting NTCP, changes in NTCP mRNA level under the condition of overexpressing CREBH was first detected.

Test [3] concerns HBV. The test can be described thus: cDNA library screening by HBV infection of HepG2-NTCP cells in 1% PEG. The class given is cell-based. How it is done:
The cDNA library was prepared by packaging lentivirus, with HepG2-NTCP cells expressing the cDNA clones being packaged therein. After 24 hours, infection was conducted with HBV at a same tier in the presence of 1% PEG. Culture supernatant was collected every 2 days, and was tested with HBeAg and HBsAg kits.

In the next test the test system is APOA4 gene. The test can be described thus: relative expression of APOA4 after transduction of truncated forms into HepG2-NTCP cells. The class given is cell-based. How it is done: In order to detect whether each truncated form still had transcriptional activation ability, experiments were conducted by using the activation of APOA4 gene reported in the literature as an indicator of the transcriptional activation ability of CREBH. After the truncated forms were transduced into HepG2-NTCP cells, relative expression of APOA4 was detected. […] CREBH-C also had relatively high activation efficiency, which however was about ⅓ of the activation efficiency of the full-length CREBH.

Another test relates to SCARF2 gene. The test can be described thus: SCARF2 expression after transduction of CREBH and truncated forms (mRNA sequencing, quantitative PCR). The class given is cell-based. As to conditions: HepG2-NTCP cells transduced. From the text:
Since the results of the infection occurred after the transduction of truncated forms of CREBH indicate that the transcriptional activation function of CREBH is necessary for enhancement of the infection, and the shortest functional truncated form CREBH-122-318 is localized on the nucleus, it is inferred that it is by activating a downstream gene that CREBH enhances HBV entry. In order to more accurately determine the downstream major gene, HepG2-NTCP cells transduced with CREBH, CREBH-122, CREBH-307, CREBH-122-318, CREBH-211-318, PWPI-B, and PMM were selected and used for transcriptome sequencing experiments. Meanwhile, CREBH siRNA-2 was selected and used to knock down CREBH in HepG2-NTCP cells. siNC was used as a negative control. Changes in transcriptomes were detected.
The same conclusion was also made from subsequent experiments using quantitative PCR, and the expression levels of SCARF2 were completely consistent with the enhancement effects of CREBH and its various truncated forms on HBV infection observed in the previous text.

The test system of another test is hepatitis D virus (HDV). Put plainly: HDV infection. Format: cell-based. From the text: This phenomenon can be explained and discussed from the following aspects. First, the present invention finds that HDV infection is more dependent on the expression of NTCP on the cell membrane than HBV infection, and HDV infection can occur more easily at a low PEG concentration. Although HDV and HBV have the same viral outer membrane, HDV can be assembled in the absence of L protein. […] Second, SCARF2 contains, at its C-terminus, a signal that can lead to its localization to the nuclear membrane, and a mutant with deletion of the C-terminal Proline-rich domain cannot enhance the infection.

The test system of test [4] is HBV. The test can be described thus: HBV infection of HepG2-NTCP cells transduced with CREBH and truncated forms (ELISA, HBcAg staining). The class given is cell-based. The settings on record: transduced before infection; 1% PEG and 5% PEG; compared with PWPI-B empty control. How it is done:
HepG2-NTCP cells were transduced with lentivirus embedded with CREBH and truncated forms thereof. After 24 hours, the cells were re-seeded in a culture plate, and the culture medium was changed to PMM. After 24 hours, the cells were infected with HBV in the presence of 1% PEG and 5% PEG respectively. Supernatant was collected every 2 days and assayed using an ELISA kit.
HBcAg staining was also performed in the experiments, and results were consistent with the ELISA results. […] It was thus speculated that these two truncated forms might have exerted a dominant-negative effect.
A general note: ELISA stands for enzyme-linked immunosorbent assay.

Sequence of polypeptide containing amino acids 69-108 of preS1 (peptide^69-108) (hepatitis B virus) (P03138 69-108): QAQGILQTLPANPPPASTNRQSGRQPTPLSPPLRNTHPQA

With “SCARF2 EGF4-6 protein (from UniProt Q96GP6 183-270) (Fc fusion)”, in test [1], the off-rate constant (koff) is 0.000289 s⁻¹ and the kon is 4970 M⁻¹ s⁻¹. In test [2], this molecule registered an equilibrium dissociation constant (Kd) of 58 nM.
For the molecule `CC[C@H](C)[C@H](NC(=O)CNC(=O)[C@H](CCC(N)=O)NC(=O)[C@H](C)NC(=O)[C@@H](N)CCC(N)=O)C(=O)N[C@@H](CC(C)C)C(=O)N[C@@H](CCC(N)=O)C(=O)N[C@H](C(=O)N[C@@H](CC(C)C)C(=O)N1CCC[C@H]1C(=O)N[C@@H](C)C(=O)N[C@@H](CC(N)=O)C(=O)N1CCC[C@H]1C(=O)N1CCC[C@H]1C(=O)N1CCC[C@H]1C(=O)N[C@@H](C)C(=O)N[C@@H](CO)C(=O)N[C@H](C(=O)N[C@@H](CC(N)=O)C(=O)N[C@@H](CCCNC(=N)N)C(=O)N[C@@H](CCC(N)=O)C(=O)N[C@@H](CO)C(=O)NCC(=O)N[C@@H](CCCNC(=N)N)C(=O)N[C@@H](CCC(N)=O)C(=O)N1CCC[C@H]1C(=O)N[C@H](C(=O)N1CCC[C@H]1C(=O)N[C@@H](CC(C)C)C(=O)N[C@@H](CO)C(=O)N1CCC[C@H]1C(=O)N1CCC[C@H]1C(=O)N[C@@H](CC(C)C)C(=O)N[C@@H](CCCNC(=N)N)C(=O)N[C@@H](CC(N)=O)C(=O)N[C@H](C(=O)N[C@@H](Cc1c[nH]cn1)C(=O)N1CCC[C@H]1C(=O)N[C@@H](CCC(N)=O)C(=O)N[C@@H](C)C(=O)O)[C@@H](C)O)[C@@H](C)O)[C@@H](C)O)[C@@H](C)O` [peptide^69-108], at SCARF2 EGF4-6 proteins, the “binding to SCARF2 EGF4-6 proteins” value was “specifically bound”.

B1: CREBH: cAMP-responsive element-binding protein, hepatocyte specific; SEQ ID NO:1; expressed by lentiviral transduction (protein, listed as Homo sapiens)
chain: MNTDLAAGKMASAACSMDPIDSFELLDLLFDRQDGILRHVELGEGWGHVKDQQVLPNPDSDDFLSSILGSGDSLPSSPLWSPEGSDSGISEDLPSDPQDTPPRSGPATSPAGCHPAQPGKGPCLSYHPGNSCSTTTPGPVIQVPEASVTIDLEMWSPGGRICAEKPADPVDLSPRCNLTVKDLLLSGSSGDLQQHHLGASYLLRPGAGHCQELVLTEDEKKLLAKEGITLPTQLPLTKYEERVLKKIRRKIRNKQSAQESRKKKKEYIDGLETRMSACTAQNQELQRKVLHLEKQNLSLLEQLKKLQAIVVQSTSKSAQTGTCVAVLLLSFALIILPSISPFGPNKTESPGDFAPVRVFSRTLHNDAASRVAADAVPGSEAPGPRPEADTTREESPGSPGADWGFQDTANLTNSTEELDNATLVLRNATEGLGQVALLDWVAPGPSTGSGRAGLEAAGDEL
Consider B1, for which the “NTCP mRNA level” value in the test with NTCP mRNA was “slightly down-regulated”. For the same molecule, in the test on HBV [3] (HBcAg staining), the “number of HBcAg-positive cells” value is on record as “remarkably increases”. Also, the “HBV infection (HBeAg, HBsAg in supernatant)” value with HBV [3] (HepG2-NTCP cells expressing cDNA clone, 1% PEG) is given as “remarkably enhances HBV infection”. In the test with APOA4 gene, the “activation of APOA4 gene (relative expression)” value is listed as “strongest activation effect”. Besides, the “expression of SCARF2” value in the test on SCARF2 gene is on record as “can up-regulate the expression of SCARF2 gene, but not to a very significant level”. The HDV infection result with hepatitis D virus (HDV) is “neither of CREBH and SCARF2 can enhance”. Moreover, in the test with HBV [4], the “HBV infection efficiency (ELISA)” value is “increase the infection efficiency”.

Broadly, the koff is the rate constant with which the complex falls apart. Read a low koff as slow dissociation. Broadly, the kon is a measure of how fast the partners come together. For orientation: Kd means a measure of binding affinity in units of concentration. A higher Kd goes with lower affinity.
